Four substances from US20120269821A1 can be followed below.

Some targets named below: Du422.1 envelope (HIV-1); TRO.11 envelope (HIV-1); B.SF162 envelope (HIV-1); C.TV-1 envelope (HIV-1).
Experiment in all cases: cell-based or functional assay
In assay [1] the target is ZM197M.PB7 envelope (HIV-1).
Assay [2] has as its target CAP206.1.B5 envelope (HIV-1).
Assay [3] deals with SC422661.8 envelope (HIV-1).
Assay [4] has as its target B.BG1168 envelope (HIV-1).
The target in assay [5] is Du156.12 envelope (HIV-1).
Assay [6] deals with QH0692.42 envelope (HIV-1).
The target in assay [7] is COT6.15 envelope W678A (HIV-1).
For assay [8], the target named is COT6.15 envelope I675A (HIV-1).
The target in assay [9] is COT6.15 envelope W680A (HIV-1).
The target in assay [10] is COT6.15 envelope L669A (HIV-1).
The target in assay [11] is COT6.15 envelope W670A (HIV-1).
For assay [12], the target named is COT6.15 envelope A662G (HIV-1).
The target in assay [13] is COT6.15 envelope S665A (HIV-1).
For assay [14], the target named is COT6.15 envelope L663A (HIV-1).
Assay [15] addresses COT6.15 envelope S671A (HIV-1).
In assay [16] the target is COT6.15 envelope, wild type (HIV-1).
The target in assay [17] is COT6.15 envelope W672A (HIV-1).
Assay [18] concerns the target COT6.15 envelope L679A (HIV-1).
Assay [19] has as its target COT6.15 envelope D674S (HIV-1).
Assay [20] addresses COT6.15 envelope T676A (HIV-1).
Assay [21] has as its target COT6.15 envelope F673A (HIV-1).
Assay [22] addresses COT6.15 envelope K677A (HIV-1).
Assay [23] deals with COT6.15 envelope D674N (HIV-1).
Assay [24] has as its target COT6.15 envelope K667A (HIV-1).
Assay [25] has as its target COT6.15 envelope D664A (HIV-1).
Assay [26] concerns the target COT6.15 envelope D674A (HIV-1).
For assay [27], the target named is COT6.15 envelope N668A (HIV-1).
Assay [28] has as its target COT6.15 envelope W666A (HIV-1).

On to mAb 2F5 (Polymun Scientific) (antibody), for which the IC50 in TZM-bl cells is more than 25000 µg/mL with Du422.1 envelope (HIV-1); more than 25000 µg/mL in assay [1]; more than 25000 µg/mL in [2]; more than 25000 µg/mL with TRO.11 envelope (HIV-1); more than 25000 µg/mL in assay [5]; 1810 µg/mL in assay [6]. Also, the IC50 in TZM-bl/FcγRI cells is more than 25000 µg/mL with Du422.1 envelope (HIV-1); 60 µg/mL in assay [1]; more than 25000 µg/mL in [2]; less than 10 µg/mL in assay [3]; more than 25000 µg/mL in [5]; less than 10 µg/mL in [6]. In addition, the 50% neutralization level in assay [4] is 0.32 µg/mL; with B.SF162 envelope (HIV-1), 0.1 µg/mL; with C.TV-1 envelope (HIV-1) it was 10.9 µg/mL.

Take mAb 4E10 (antibody): the IC50 in TZM-bl cells with Du422.1 envelope (HIV-1) was determined as 300 µg/mL; in assay [1] it was 1100 µg/mL; in assay [2], 0.1; in the assay with TRO.11 envelope (HIV-1), 300 µg/mL; in assay [5], 200 µg/mL; in [6], 6500 µg/mL. Further, the IC50 in TZM-bl/FcγRI cells was less than 10 µg/mL in the assay with Du422.1 envelope (HIV-1); less than 10 µg/mL in [1]; less than 10 µg/mL in assay [2]; less than 10 µg/mL in [3]; less than 10 µg/mL in assay [5]; 110 µg/mL in [6]. Moreover, the IC50, pseudovirus neutralization stood at 0.05 µg/mL in [7]; 0.04 µg/mL in [8]; 10.9 µg/mL in [9]; 0.05 µg/mL in assay [10]; 0.11 µg/mL in assay [11]; 0.12 µg/mL in [12]. Further, the IC50, pseudovirus neutralization in assay [13] is 0.14 µg/mL; in assay [14], 0.02 µg/mL; in assay [15], 0.04 µg/mL; in assay [16], 0.9 µg/mL; in assay [17], more than 25 µg/mL; in [18], 0.09 µg/mL. In addition, the IC50, pseudovirus neutralization in assay [19] is 2.49 µg/mL; in [20], 21.8 µg/mL; in [21], more than 25 µg/mL; in assay [22], 0.05 µg/mL; in assay [23] it was 0.33 µg/mL; in [24] it was 0.05 µg/mL. Besides, the IC50, pseudovirus neutralization in assay [25] amounted to 0.77 µg/mL; in assay [26], 1.4 µg/mL; in assay [27], 1.3 µg/mL; in assay [28], 0.51 µg/mL. Also, the Ratio (mutant IC50)/(wild-type IC50) in assay [7] is 0.1; in assay [8] it was 0; in assay [9], 12.1; in [10], 0.1; in assay [11], 0.1; in assay [12], 0.1. Also, the Ratio (mutant IC50)/(wild-type IC50) was 0.2 in assay [13]; 0 in assay [14]; 0 in assay [15]; more than 25 in [17]; 0.1 in assay [18]; 2.8 in assay [19]. Also, the Ratio (mutant IC50)/(wild-type IC50) was 24.2 in assay [20]; more than 25 in assay [21]; 0.1 in assay [22]; 0.4 in assay [23]; 0.1 in assay [24]; 0.9 in assay [25]. Also, the Ratio (mutant IC50)/(wild-type IC50) in assay [26] was found to be 1.6; in assay [27], 1.4; in assay [28], 0.6.

Take mAb Z13e1 (antibody): the IC50 in TZM-bl cells in [1] was determined as 30; with TRO.11 envelope (HIV-1) it was 13300 µg/mL; in [5], 4700 µg/mL; in assay [6] it was 46000 µg/mL.

For the substance recombinant 2F5 IgG antibody, the 50% neutralization level was 1.17 µg/mL in assay [4], 0.3 µg/mL with B.SF162 envelope (HIV-1) and 34.5 µg/mL in the assay with C.TV-1 envelope (HIV-1).
